US20030119023, “Nucleic acid binding polypeptides characterized by flexible linkers connected nucleic acid binding modules” (published 2003)

Legend:
[1] = biological target: TF(1-4)-ZIF (TFIIIA F1-4 fused to Zif268) (artificial); experiment: EMSA; apparent Kd; table prints gap as X8; details: label: 32P
Description: (§1) DNA binding reactions contain the appropriate zinc-finger peptide, binding site and 1 μg competitor DNA (poly dI-dC) in a total volume of 10 μl, which contains: 20 mM Bis-tris propane (pH 7.0), 100 mM NaCl, 5 mM MgCl₂, 50 μM ZnCl₂, 5 mM DTT, 0.1 mg/ml BSA, 0.1% Nonidet P40. Incubations are performed at room temperature for 1 hour.
(§2) Dissociation constants are determined in parallel to the calculation of active peptide concentration. Serial 3, 4 or 5-fold dilutions of crude peptide are made and incubated with radiolabelled binding site (0.1 pM-500 pM depending on the peptide), as above. Samples are run on 7% native polyacrylamide gels and the radioactive signals quantitated by PhosphorImager analysis. The data is then analysed according to linear transformation of the binding equation and plotted in CA-Cricket Graph III (Computer Associates Inc. NY) to generate the apparent dissociation constants. The Kd values reported are the average of at least two separate studies.
(§3) The TF(1-4)-ZIF and TF(1-3)-flex-ZIF peptides are tested against the non-contiguous TF-5,6,7,8,9-Z sites. In these first experiments the DNA composition of the non-bound region is based on the endogenous TFIIIA target site. […] The target sites with 5, 6 or 9 bp gaps are bound at least 5-fold weaker (FIG. 27A). […]

[2] = biological target: Zif268 (wild-type ZIF, three-finger) (UniProt P08046 P08046:333-421); experiment: EMSA; Bis-tris propane pH 7.0, 100 mM NaCl, 5 mM MgCl2, 50 uM ZnCl2, room temperature
[3] = biological target: TF(1-4)-ZIF (TFIIIA F1-4 fused to Zif268) (artificial); experiment: EMSA; no preference for gap composition (data not shown); details: label: 32P
3x2F ZGS [4] = biological target: 3x2F ZGS (artificial); experiment: EMSA; apparent Kd; details: label: 32P
Description: as §1, §2
(§4) First the 3x2F ZGS and ZGL peptides are titrated against 12/34/56 (three 6 bp subsites separated by 1 bp, which is represented by a single ‘/’ in the binding site name) and 12//34//56 (three 6 bp subsites separated by 2 bps) binding sites. […] Next, the 3x2F ZGSL and 3x2F ZGLS peptides are targeted against the three non-contiguous sequences: 1234/56, 12/3456 and 12//34//56. […] 3x2F ZGLS show a similar trend in binding affinities.

3x2F ZGLS = 3x2F ZGLS (artificial); experiment: EMSA; apparent Kd; details: label: 32P
Description: as §1, §2, §4

3x2F ZGSL = 3x2F ZGSL (artificial); experiment: EMSA; apparent Kd; details: label: 32P
Description: as §1, §2, §4

[5] = biological target: TF(1-4)-ZIF (TFIIIA F1-4 fused to Zif268) (artificial); experiment: EMSA; apparent Kd; table prints gap as X5; details: label: 32P
Description: as §1, §2

GAC-F4-ZIF [6] = biological target: GAC-F4-ZIF (artificial); experiment: EMSA; 7 bp gap spanned without significant loss; details: label: 32P
3x2F ZGS [7] = biological target: 3x2F ZGS (artificial); experiment: EMSA; apparent Kd; details: label: 32P; remark: listed apart in the source
Description: as §1, §2

2x3F ZIF-GAC = 2x3F ZIF-GAC (artificial); experiment: EMSA; apparent Kd; details: label: 32P
Description: as §1, §2

GAC-F4-ZIF [8] = biological target: GAC-F4-ZIF (artificial); experiment: EMSA; 10 bp gap spanned without significant loss; details: label: 32P
3x2F ZGL = 3x2F ZGL (artificial); experiment: EMSA; apparent Kd; details: label: 32P
Description: as §1, §2, §4

[9] = biological target: TF(1-4)-ZIF (TFIIIA F1-4 fused to Zif268) (artificial); experiment: EMSA; apparent Kd; table prints gap as X7; details: label: 32P
Description: as §1, §2, §3

[10] = biological target: ZIF-ZnF-GAC (serine-finger linker) (artificial); experiment: EMSA; details: label: 32P
Description: as §1
For this purpose a ‘neutral’ finger is created by replacing the DNA binding residues (those at positions −1, 2, 3, and 6) of wild type ZIF268 finger 2, with serine residues. Serine can act as either an H-bond acceptor or donator, and can therefore interact with all four bases in DNA. This new finger, denoted “ZnF” and flanked by two GERP linkers, is used to join the three-finger peptides of ZIF and the GAC-clone, creating the seven-finger array ZIF-ZnF-GAC (FIG. 17). This peptide is targeted against non-contiguous sites comprising the 9 bp ZIF and GAC-clone recognition sequences separated by 2, 3, 4 or 5 bps of DNA, and also sites bsA and bsC for comparison (FIG. 21).

3x2F ZGXL = 3x2F ZGXL (artificial); experiment: EMSA; details: label: 32P
Description: as §1
3x2F ZGXL binds the non-contiguous site bsD approximately as tightly as the 3x2F ZGS peptide binds the contiguous 18 bp site, bsC. However, the 3x2F ZGXL peptide binds bsE (containing 2 base pair gaps between target subsites) approximately 500-fold less tightly than it does bsC and bsD, as shown in FIG. 11. This is presumably because it can only bind bsE through 2 fingers.

[11] = biological target: ZIF-ZnF-GAC (serine-finger linker) (artificial); experiment: EMSA; apparent Kd; details: label: 32P
Description: as §1, §2
A further set of binding studies is then carried out on the construct containing the non-specific zinc finger linker, ZIF-ZnF-GAC. Although this construct is expected to target (primarily) non-contiguous sequences containing three or four base pairs of non-bound DNA, it is tested against all of the binding sites from ZM to Z10M. […]

GAC-F4-ZIF [12] = biological target: GAC-F4-ZIF (artificial); experiment: EMSA; optimal 8 bp gap; details: label: 32P
Description: as §1
(§5) To determine whether TFIIIA F4 would still function as a linker when taken out of the context of neighbouring TFIIIA fingers, the GAC-F4-ZIF construct is made (FIGS. 14 and 16). This construct can be thought of simply as two ZIF-based DNA binding domains joined by a structured linker (in this case TFIIIA F4). […] In this case, however, the optimal DNA span is found to be 8 or 9 bps, although 7-11 bp stretches could be spanned without a significant loss in binding affinity.

[13] = biological target: TF(1-4)-ZIF (TFIIIA F1-4 fused to Zif268) (artificial); experiment: EMSA; apparent Kd; table prints gap as X9; details: label: 32P
Description: as §1, §2, §3

[14] = biological target: TF(1-4)-ZIF (TFIIIA F1-4 fused to Zif268) (artificial); experiment: EMSA; apparent Kd; table prints gap as X6; details: label: 32P
Description: as §1, §2, §3

GAC-F4-ZIF [15] = biological target: GAC-F4-ZIF (artificial); experiment: EMSA; optimal 9 bp gap; details: label: 32P
Description: as §1, §5

GAC-F4-ZIF [16] = biological target: GAC-F4-ZIF (artificial); experiment: EMSA; 11 bp gap spanned without significant loss; details: label: 32P

Chain of 3x2F ZGLS (artificial) (chain, as listed by the source): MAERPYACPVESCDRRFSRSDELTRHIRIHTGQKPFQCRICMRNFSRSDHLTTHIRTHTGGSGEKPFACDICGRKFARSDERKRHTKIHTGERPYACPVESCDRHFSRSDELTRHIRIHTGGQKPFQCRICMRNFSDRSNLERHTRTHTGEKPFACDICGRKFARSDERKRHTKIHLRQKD
Chain of 3x2F ZGSL (artificial) (chain, as listed by the source): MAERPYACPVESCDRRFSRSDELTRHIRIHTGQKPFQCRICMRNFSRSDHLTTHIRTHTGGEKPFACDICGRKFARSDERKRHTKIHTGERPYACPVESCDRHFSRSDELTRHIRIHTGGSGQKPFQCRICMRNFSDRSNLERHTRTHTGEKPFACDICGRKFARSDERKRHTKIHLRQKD
Chain of GAC-F4-ZIF (artificial) (chain, as listed by the source): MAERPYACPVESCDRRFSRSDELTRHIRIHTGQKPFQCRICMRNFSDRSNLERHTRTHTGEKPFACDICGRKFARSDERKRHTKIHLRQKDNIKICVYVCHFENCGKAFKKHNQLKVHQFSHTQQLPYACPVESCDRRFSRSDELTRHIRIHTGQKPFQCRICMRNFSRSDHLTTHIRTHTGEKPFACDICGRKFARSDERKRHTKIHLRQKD
Chain of 3x2F ZGS (artificial) (chain, as listed by the source): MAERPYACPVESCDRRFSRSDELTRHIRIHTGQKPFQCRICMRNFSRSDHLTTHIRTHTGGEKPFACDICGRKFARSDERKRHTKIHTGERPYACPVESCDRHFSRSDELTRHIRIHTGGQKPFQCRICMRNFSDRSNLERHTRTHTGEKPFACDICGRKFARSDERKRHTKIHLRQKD
Chain of 2x3F ZIF-GAC (artificial) (chain, as listed by the source): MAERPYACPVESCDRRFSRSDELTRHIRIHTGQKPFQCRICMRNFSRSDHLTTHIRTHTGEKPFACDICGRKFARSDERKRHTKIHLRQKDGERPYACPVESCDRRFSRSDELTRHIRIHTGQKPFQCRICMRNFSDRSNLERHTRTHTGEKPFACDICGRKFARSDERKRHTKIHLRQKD
Chain of ZIF-ZnF-GAC (serine-finger linker) (artificial) (chain, as listed by the source): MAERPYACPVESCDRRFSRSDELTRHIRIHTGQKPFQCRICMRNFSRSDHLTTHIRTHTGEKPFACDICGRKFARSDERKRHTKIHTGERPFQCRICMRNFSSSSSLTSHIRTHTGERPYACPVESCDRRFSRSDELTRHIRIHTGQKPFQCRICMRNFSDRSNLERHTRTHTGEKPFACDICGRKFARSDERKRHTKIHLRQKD
Chain of TF(1-4)-ZIF (TFIIIA F1-4 fused to Zif268) (artificial) (chain, as listed by the source): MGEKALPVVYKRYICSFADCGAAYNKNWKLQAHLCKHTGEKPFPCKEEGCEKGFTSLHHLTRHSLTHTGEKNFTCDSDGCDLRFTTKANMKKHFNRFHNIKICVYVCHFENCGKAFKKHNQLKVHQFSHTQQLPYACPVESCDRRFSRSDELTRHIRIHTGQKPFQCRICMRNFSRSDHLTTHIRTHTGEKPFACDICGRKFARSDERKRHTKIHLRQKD
Chain of 3x2F ZGL (artificial) (chain, as listed by the source): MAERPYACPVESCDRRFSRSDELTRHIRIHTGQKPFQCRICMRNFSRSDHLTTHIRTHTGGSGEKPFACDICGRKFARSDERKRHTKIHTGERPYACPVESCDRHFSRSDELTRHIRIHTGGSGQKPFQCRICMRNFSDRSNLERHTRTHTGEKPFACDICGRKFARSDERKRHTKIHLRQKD
Chain of 3x2F ZGXL (artificial) (chain, as listed by the source): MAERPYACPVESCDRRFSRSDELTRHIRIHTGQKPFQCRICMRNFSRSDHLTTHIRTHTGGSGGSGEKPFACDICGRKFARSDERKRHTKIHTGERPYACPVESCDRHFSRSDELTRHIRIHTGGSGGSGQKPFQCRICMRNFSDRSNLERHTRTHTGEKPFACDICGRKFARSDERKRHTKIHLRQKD

B1: TF8Z (bsD1) (dsDNA)
DNA 1: GCGTGGGCGTAGTACCTGGATGGGAGAC
DNA 2: GTCTCCCATCCAGGTACTACGCCCACGC
B1 gave a Kd [1] of 0.003 nM.

B2: bsA (ZIF site) (dsDNA)
DNA 1: GCGTGGGCG
DNA 2: CGCCCACGC
Binder B2 has a Kd [2] of 0.45 nM.

B3: bsH1 (dsDNA)
DNA 1: GCGTGGGCGAAAAAAGGATGGGAGAC
DNA 2: GTCTCCCATCCTTTTTTCGCCCACGC
B3: binds [3].

B4: bsF (1234/56 in Table 5) (dsDNA)
DNA 1: GCGGACTGCGGCGTGGGCG
DNA 2: CGCCCACGCCGCAGTCCGC
In the case of B4, the Kd (3x2F ZGS [4]) is reported as 0.054 nM, the Kd (3x2F ZGLS) is reported as 0.089 nM and the Kd (3x2F ZGSL) is reported as 0.003 nM.

B5: TF5Z (bsA1) (dsDNA)
DNA 1: GCGTGGGCGTACCTGGATGGGAGAC
DNA 2: GTCTCCCATCCAGGTACGCCCACGC
Binder B5 has a Kd [5] of 0.021 nM.

B6: bsB2 (dsDNA)
DNA 1: GCGTGGGCGGTACCTGGCGGACGCG
DNA 2: CGCGTCCGCCAGGTACCGCCCACGC
B6: binds (GAC-F4-ZIF [6]).

B7: bs2 (123/56) (dsDNA)
DNA 1: GCGGACTGCGTGGGCG
DNA 2: CGCCCACGCAGTCCGC
B7 gave a Kd (3x2F ZGS [7]) of 0.63 nM and a Kd (2x3F ZIF-GAC) of 0.014 nM.

B8: bsG1 (dsDNA)
DNA 1: GCGTGGGCGCTTGACGGATGGGAGAC
DNA 2: GTCTCCCATCCGTCAAGCGCCCACGC
B8: binds [3].

B9: bsE2 (dsDNA)
DNA 1: GCGTGGGCGTTAGTACCTGGCGGACGCG
DNA 2: CGCGTCCGCCAGGTACTAACGCCCACGC
B9: binds (GAC-F4-ZIF [8]).

B10: bsD (12/34/56) (dsDNA)
DNA 1: GCGGACTGCGGCGTTGGGCG
DNA 2: CGCCCAACGCCGCAGTCCGC
B10 showed a Kd (3x2F ZGS [4]) of 18 nM, a Kd (3x2F ZGLS) of 0.12 nM and a Kd (3x2F ZGSL) of 0.11 nM. For the same binder, the Kd (3x2F ZGL) was 0.005 nM.

B11: TF7Z (bsC1) (dsDNA)
DNA 1: GCGTGGGCGAGTACCTGGATGGGAGAC
DNA 2: GTCTCCCATCCAGGTACTCGCCCACGC
In the case of B11, the Kd [9] is reported as 0.003 nM.

B12: Z5G (dsDNA)
DNA 1: GCGGACGCGCTAGTGCGTGGGCG
DNA 2: CGCCCACGCACTAGCGCGTCCGC
For B12, the binding signal [10] was at least 500 fold stronger than bsA.

B13: bsC (123456, ZM) (dsDNA)
DNA 1: GCGGACGCGGCGTGGGCG
DNA 2: CGCCCACGCCGCGTCCGC
With B13 the Kd (2x3F ZIF-GAC) was 0.0014 nM, the binding result (3x2F ZGXL) was “binds” and the Kd [11] was 0.007 nM.

B14: bsC2 (dsDNA)
DNA 1: GCGTGGGCGAGTACCTGGCGGACGCG
DNA 2: CGCGTCCGCCAGGTACTCGCCCACGC
B14 was tested, and the binding signal (GAC-F4-ZIF [12]) was at least 125 fold stronger than bsA.

B15: bs4 (123///56) (dsDNA)
DNA 1: GCGGACATCGCGTGGGCG
DNA 2: CGCCCACGCGATGTCCGC
B15 was tested, and the Kd (3x2F ZGS [7]) was 0.89 nM and the Kd (2x3F ZIF-GAC) was 0.015 nM.

B16: TF9Z (bsE1) (dsDNA)
DNA 1: GCGTGGGCGTTAGTACCTGGATGGGAGAC
DNA 2: GTCTCCCATCCAGGTACTAACGCCCACGC
With B16 the Kd [13] was 0.015 nM.

B17: TF6Z (bsB1) (dsDNA)
DNA 1: GCGTGGGCGGTACCTGGATGGGAGAC
DNA 2: GTCTCCCATCCAGGTACCGCCCACGC
Binder B17 has a Kd [14] of 0.017 nM.

B18: bsE (12//34//56) (dsDNA)
DNA 1: GCGGAGTCGCGGCGTCTGGGCG
DNA 2: CGCCCAGACGCCGCGACTCCGC
B18 was tested, and the Kd (3x2F ZGLS) was 12 nM, the Kd (3x2F ZGSL) was 12 nM and the Kd (3x2F ZGL) was 11 nM.

B19: Z2G (dsDNA)
DNA 1: GCGGACGCGGTGCGTGGGCG
DNA 2: CGCCCACGCACCGCGTCCGC
B19 showed a binding signal [10] of at least 500 fold stronger than bsA.

B20: bsD2 (dsDNA)
DNA 1: GCGTGGGCGTAGTACCTGGCGGACGCG
DNA 2: CGCGTCCGCCAGGTACTACGCCCACGC
B20 gave a binding signal (GAC-F4-ZIF [15]) of at least 125 fold stronger than bsA.

B21: Z3G (dsDNA)
DNA 1: GCGGACGCGAGTGCGTGGGCG
DNA 2: CGCCCACGCACTCGCGTCCGC
In the case of B21, the binding signal [10] is reported as at least 500 fold stronger than bsA.

B22: bs3 (123//56) (dsDNA)
DNA 1: GCGGACTCGCGTGGGCG
DNA 2: CGCCCACGCGAGTCCGC
Work on B22 yielded a Kd (3x2F ZGS [7]) of 0.27 nM and a Kd (2x3F ZIF-GAC) of 0.014 nM.

B23: bsF2 (dsDNA)
DNA 1: GCGTGGGCGGTTAGTACCTGGCGGACGCG
DNA 2: CGCGTCCGCCAGGTACTAACCGCCCACGC
B23: binds (GAC-F4-ZIF [16]).

B24: Z4G (dsDNA)
DNA 1: GCGGACGCGTAGTGCGTGGGCG
DNA 2: CGCCCACGCACTACGCGTCCGC
In the case of B24, the binding signal [10] is reported as at least 500 fold stronger than bsA.

B25: bsG (12/3456 in Table 5) (dsDNA)
DNA 1: GCGGACGCGGCGTTGGGCG
DNA 2: CGCCCAACGCCGCGTCCGC
In the case of B25, the Kd (3x2F ZGS [4]) is reported as 0.077 nM, the Kd (3x2F ZGLS) is reported as 0.005 nM and the Kd (3x2F ZGSL) is reported as 0.073 nM.

B26: bs1 (12356) (dsDNA)
DNA 1: GCGGACGCGTGGGCG
DNA 2: CGCCCACGCGTCCGC
Work on B26 yielded a Kd (3x2F ZGS [7]) of 22 nM and a Kd (2x3F ZIF-GAC) of 0.36 nM.
